The values that follow come from patent US7422862B2, “Methods for identifying modulators of apoptosis” (The Burnham Institute, priority 2001, dated 2008).

One experiment concerns the target T1, Bax (S184K) (Mus musculus, UniProt Q07813, S184K).
T1 construct: expressed in transfected cells; host or cells: S. cerevisiae EGY48
As to the kind of experiment: Yeast two-hybrid assay. The format is binding. As to conditions: EGY48 cells, pGilda-Bax (S184K) and pYESTrp-Humanin. The text has this:
A yeast two-hybrid system is designed to screen a cDNA library for a gene encoding a polypeptide that interacts with a known target (bait) polypeptide (Golemis, et al., In Current Protocols in Molecular Biology, John Wiley & Sons, Inc., Ch.20.0 and 20.1.(1996); Mendelsohn and Brent, Current Opinion in Biotechnology 5:482-486 (1994)). In this experiment, a S184K (a serine at position 184 in the transmembrane domain mutated to a lysine) mutant of mouse Bax was used as a bait, since the wild type Bax induces cell death in yeast.
Bax (S184K) cDNA was constructed in a pgilda yeast expression vector at EcoRV Xhol sites, producing a LexA-Bax fusion polypeptide. The prokaryotic LexA polypeptide, which functions as the DNA binding domain and binds to LexA operators, was used. A human adult testes cDNA library in a pYESTrp vector was purchased from Invitrogen. This library contains library cDNA fused with a B42 transcription activation domain (an 88-residue acidic E. coli peptide). The pGilda-Bax (S184K) and cDNA library plasmids were co-transfected into EGY48 yeast cells together with a reporter plasmid pSH18-34. The transformants were cultured on leucine-deficient galactose-containing media, which induces gene expression through the GAL1 promoter located within both the pGilda and pYESTrp vectors. […]

The next experiment addresses purified recombinant Bax (Homo sapiens, UniProt Q07812). Kind of experiment: Isolated mitochondria: Bax association and cytochrome c release assay. The format is biochemical. To be noted: 100 μM peptide preincubated with Bax, HCT116 mitochondria. On the procedure:
(A-B) Humanin peptide prevents STS-induced Bax translocation in vivo. Cos-7 cells were first transfected with GFP-Bax plasmids. After 24 hrs, untagged wild-type or C8P mutant Humanin peptides were introduced into cells using ChariotTM reagent, and 2 h later cells were treated with 1 μM STS. After 4 h, the percentage of cells with translocated Bax was determined (mean±SD; n=3) by confocal microscopy (A) and representative photomicrographs (B). (C) Wild-type or C8P mutant Humanin peptides were introduced into Cos7 cells using ChariotTM reagent. Cytosolic (C) and mitochondria-containing (M) fractions were isolated by differential centrifugation 23 and analyzed by immunoblotting using anti-Bax (top), Hsp60 (middle) (mitochondrial marker), or Tubulin (bottom) (cytosol marker) antibodies. (D) HN or mutant control double-strand siRNAs were transfected into SF268 cells. After 48 h, cells were cultured without (Control) or with 0.1 uM STS. After 24 hr, cells were fractionated and analyzed by immunoblotting as above. (E) Isolated mitochondria were mixed with 400 ng Bax protein, with or without preincubating Bax with 100 uM Humanin or Humanin(C8P) peptides for 10 min. After 3 h at 30° C., mitochondria were centrifuged and the resulting pellets (P) and supernatants (S) were analyzed by immunoblotting using anti-Cytochrome c (top), Hsp60 (middle), and Bax (bottom) antibodies. (F) HN peptide enforces the interaction of Bax TM domain with Bax.TM. Lysates from HEK293T cells expressing Flag-Bax.TM were pretreated with or without Humanin or Humanin(C8P) peptides. Lysates were then mixed in vitro with lysates of HEK293T cells expressing GFP-TM(Bax). Immunoprecipitations were performed with anti-Flag antibody, analyzing lysates and immunoprecipitates (IP) by immunoblotting using monoclonal anti-GFP antibody.
To determine whether Humanin can act directly on Bax, the effects of Humanin on isolated mitochondria were tested. Addition of recombinant purified Bax protein to mitochondria in vitro induces cytochrome c release (Jurgensmeier et al., Proc. Natl. Acad. Sci. USA 95:4997-5002 (1998)). […] Therefore Humanin can directly suppress Bax targeting to mitochondria, without requirement for intact cells.
Cytochrome c release assays were performed as follows. Mitochondria were isolated from HCT116 cells by differential centrifugation as described above. Purified recombinant human Bax protein (400 ng for each sample) was pre-incubated with or without 100 μM synthetic Humanin peptide or mutant Humanin (C8P) peptide for 10 min at 4° C. The untreated or peptide pre-treated Baxprotein samples were then mixed with equal amount of HCT116 mitochondria (in a volume of 40 μl) at 30° C. for 3 hours. […]

The subject of experiment [1] is Bax-deficient HCT116 cells. As to the kind of experiment: STS-induced apoptosis in Bax-deficient HCT116 cells. The format is cell-based, human.

purified recombinant Bax, sequence (Q07812 whole entry): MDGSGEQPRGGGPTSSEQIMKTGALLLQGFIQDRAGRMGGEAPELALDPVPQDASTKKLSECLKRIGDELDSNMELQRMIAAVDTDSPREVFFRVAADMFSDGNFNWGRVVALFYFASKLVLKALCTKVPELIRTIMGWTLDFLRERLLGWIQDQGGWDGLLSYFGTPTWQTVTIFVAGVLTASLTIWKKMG
T1 sequence (Q07813 whole entry S184K): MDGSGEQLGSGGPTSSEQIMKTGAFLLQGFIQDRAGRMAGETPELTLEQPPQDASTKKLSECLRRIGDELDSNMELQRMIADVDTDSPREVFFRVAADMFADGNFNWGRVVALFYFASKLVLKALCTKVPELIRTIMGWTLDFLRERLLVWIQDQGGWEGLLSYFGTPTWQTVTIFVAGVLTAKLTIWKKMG

For the substance “Humanin: 24 amino acid polypeptide, cytosolic form of human Humanin (SEQ ID NO:2); used as synthetic peptide or expressed fusion”, the “yeast growth on Leu-deficient media (two-hybrid interaction)” value in the experiment with Bax (S184K) is “grew on Leu-media”. In addition, in the experiment with purified recombinant Bax, the “Bax association with mitochondria” value is recorded as “suppressed” and the cytochrome c release entry is on record as “reduced”.
Regarding “GFP-HN: Wild-type full-length Humanin fused to Green Fluorescent Protein”, the “suppression of STS-induced apoptosis” value in experiment [1] is given as “failed to suppress”.
